Test results published in publication PMC3863769.

Molecular target: mPVR-Ig (extracellular portion of mouse PVR fused to the Fc portion of human IgG1) (mouse)
Experiment: SPR

Kd: 5.16 µM
koff: 0.00259 s⁻¹
kon: 502 M⁻¹ s⁻¹
B1: mDNAM1-Ig (extracellular portion of mouse DNAM1 fused to the Fc portion of human IgG1) (Fc fusion)
chain: EETLWDTTVRLSETMTLECVYPLTHNLTQVEWTKNTGTKTVSIAVYNPNHNMHIESNYLHRVHFLNSTVGFRNMSLSFYNASEADIGIYSCLFHAFPNGPWEKKIKVVWSDSFEIAAPSDSYLSAEPGQDVTLTCQLPRTWPVQQVIWEKVQPHQVDILASCNLSQETRYTSKYLRQTRSNCSQGSMKSILIIPNAMAADSGLYRCRSEAITGKNKSFVIRLIITDGGTNKHFILP
